In paper PMC6176016 (2018):
One block for each binder: values may come before it.

Key:
[1] = target: T1, FLAG-tagged multimerized MegaAPRIL; experiment: MST
T1 chain: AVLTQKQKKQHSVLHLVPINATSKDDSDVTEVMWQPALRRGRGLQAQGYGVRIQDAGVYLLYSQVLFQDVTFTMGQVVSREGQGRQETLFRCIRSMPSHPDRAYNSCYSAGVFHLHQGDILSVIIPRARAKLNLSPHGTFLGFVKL

[2] = target: BAFF (as used in microscale thermophoresis) (UniProt Q9Y275 134-285); experiment: MST

Kd [1]: 567 nM | Kd [2]: 1080 nM
B1: FLAG-TACI-L (receptor)
chain: MSGLGRSRRGGRSRVDQEERFPQGLWTGVAMRSCPEEQYWDPLLGTCMSCKTICNHQSQRTCAAFCRSLSCRKEQGKFYDHLLRDCISCASICGQHPKQCAYFCENKLRSPVNLPPELRRQRSGEVENNSDNSGRYQGLEHRGSEASPALPGLKLSADQVALVYSTLGLCLCAVLCCFLVAVACFLKKRGDPCSCQPRSRPRQSPAKSSQDHAMEAGSPVSTSPEPVETCSFCFPECRAPTQESAVTPGTPDPTCAGRWGCHTRTTVLQPCPHIPDSGLGIVCVPAQEGGPGA
modifications: for MST only: fluorescently labeled at the N-terminus (Monolith NT Protein Labeling Kit RED-NHS)

Kd [1]: 185 nM | Kd [2]: 586 nM
B2: FLAG-tagged TACI-S, purified recombinant (receptor)
chain: MSGLGRSRRGGRSRVDQEERWSLSCRKEQGKFYDHLLRDCISCASICGQHPKQCAYFCENKLRSPVNLPPELRRQRSGEVENNSDNSGRYQGLEHRGSEASPALPGLKLSADQVALVYSTLGLCLCAVLCCFLVAVACFLKKRGDPCSCQPRSRPRQSPAKSSQDHAMEAGSPVSTSPEPVETCSFCFPECRAPTQESAVTPGTPDPTCAGRWGCHTRTTVLQPCPHIPDSGLGIVCVPAQEGGPGA
modifications: fluorescently labeled at the N-terminus (Monolith NT Protein Labeling Kit RED-NHS)
